The values below come from the Human Domainome abundance scans (Beltran et al. 2025).

± gives the uncertainty stated by the source.

B1: Glucocorticoid receptor, residues 419 to 494; numbered along this chain, P04150 (parent)
chain: KLCLVCSDEASGCHYGVLTCGSCKVFFKRAVEGQHNYLCAGRNDCIIDKIRRKNCPACRYRKCLQAGMNLEARKTK

Variants of B1 are the subject of this series. Nature of the series: abundance fitness (aPCA) (normalised: wild type 0, dead -1); higher = more abundant; growth selection in yeast, the domain comes from the species named. The following applies: Homo sapiens.
KLCLVCSDEASGCHYGVLTCGSCKVFFKRAMEGQHNYLCAGRNDCIIDKIRRKNCPACRYRKCLQAGMNLEARKTK [V31M]: the abundance fitness is -0.042 ± 0.049.

Consider KLCLVCSDEASGCHYGVLTCGSCKVFFKRAYEGQHNYLCAGRNDCIIDKIRRKNCPACRYRKCLQAGMNLEARKTK [V31Y], for which the abundance fitness is -0.034 ± 0.081. For the variant KLCLVCSDEASGCHYGVLTCGSCKVFFKRAEEGQHNYLCAGRNDCIIDKIRRKNCPACRYRKCLQAGMNLEARKTK [V31E], the abundance fitness is -0.052 ± 0.046.

Take KLCLVCSDEASGCHYGVLTCGSCKVFFKRAREGQHNYLCAGRNDCIIDKIRRKNCPACRYRKCLQAGMNLEARKTK [V31R]: the abundance fitness was -0.007 ± 0.028.

KLCLVCSDEASGCHYGVLTCGSCKVFFKRAAEGQHNYLCAGRNDCIIDKIRRKNCPACRYRKCLQAGMNLEARKTK [V31A]: the abundance fitness was -0.031 ± 0.039.

Take KLCLVCSDEASGCHYGVLTCGSCKVFFKRAIEGQHNYLCAGRNDCIIDKIRRKNCPACRYRKCLQAGMNLEARKTK [V31I]: the abundance fitness was 0.037 ± 0.051. With KLCLVCSDEASGCHYGVLTCGSCKVFFKRASEGQHNYLCAGRNDCIIDKIRRKNCPACRYRKCLQAGMNLEARKTK [V31S], the abundance fitness stood at 0.037 ± 0.037. For KLCLVCSDEASGCHYGVLTCGSCKVFFKRAQEGQHNYLCAGRNDCIIDKIRRKNCPACRYRKCLQAGMNLEARKTK [V31Q], the abundance fitness is -0.017 ± 0.048.

Regarding KLCLVCSDEASGCHYGVLTCGSCKVFFKRAKEGQHNYLCAGRNDCIIDKIRRKNCPACRYRKCLQAGMNLEARKTK [V31K], the abundance fitness was -0.078 ± 0.056. The figure for KLCLVCSDEASGCHYGVLTCGSCKVFFKRALEGQHNYLCAGRNDCIIDKIRRKNCPACRYRKCLQAGMNLEARKTK [V31L] is -0.036 ± 0.033; for KLCLVCSDEASGCHYGVLTCGSCKVFFKRAWEGQHNYLCAGRNDCIIDKIRRKNCPACRYRKCLQAGMNLEARKTK [V31W] it is -0.07 ± 0.044.

KLCLVCSDEASGCHYGVLTCGSCKVFFKRAFEGQHNYLCAGRNDCIIDKIRRKNCPACRYRKCLQAGMNLEARKTK [V31F]: the abundance fitness was -0.007 ± 0.058. Regarding KLCLVCSDEASGCHYGVLTCGSCKVFFKRAGEGQHNYLCAGRNDCIIDKIRRKNCPACRYRKCLQAGMNLEARKTK [V31G], the abundance fitness was -0.036 ± 0.035. Then KLCLVCSDEASGCHYGVLTCGSCKVFFKRADEGQHNYLCAGRNDCIIDKIRRKNCPACRYRKCLQAGMNLEARKTK [V31D], with -0.219 ± 0.084; and KLCLVCSDEASGCHYGVLTCGSCKVFFKRAPEGQHNYLCAGRNDCIIDKIRRKNCPACRYRKCLQAGMNLEARKTK [V31P], with -0.567 ± 0.1. KLCLVCSDEASGCHYGVLTCGSCKVFFKRACEGQHNYLCAGRNDCIIDKIRRKNCPACRYRKCLQAGMNLEARKTK [V31C]: the abundance fitness is -0.016 ± 0.054.

KLCLVCSDEASGCHYGVLTCGSCKVFFKRANEGQHNYLCAGRNDCIIDKIRRKNCPACRYRKCLQAGMNLEARKTK [V31N]: the abundance fitness was -0.104 ± 0.082. Take KLCLVCSDEASGCHYGVLTCGSCKVFFKRAVAGQHNYLCAGRNDCIIDKIRRKNCPACRYRKCLQAGMNLEARKTK [E32A]: the abundance fitness was -0.166 ± 0.041. In the case of KLCLVCSDEASGCHYGVLTCGSCKVFWKRAVEGQHNYLCAGRNDCIIDKIRRKNCPACRYRKCLQAGMNLEARKTK [F27W], the abundance fitness is -0.071 ± 0.038. The figure for KLCLVCSDEASGCHYGVLTCGSCKVFYKRAVEGQHNYLCAGRNDCIIDKIRRKNCPACRYRKCLQAGMNLEARKTK [F27Y] is 0 ± 0.073; for KLCLVCSDEASGCHYGVLTCGSCKVFFKRVVEGQHNYLCAGRNDCIIDKIRRKNCPACRYRKCLQAGMNLEARKTK [A30V] it is 0.026 ± 0.037; for KLCLVCSDEASGCHYGVLTCGSCKVFFKRKVEGQHNYLCAGRNDCIIDKIRRKNCPACRYRKCLQAGMNLEARKTK [A30K] it is -0.165 ± 0.062.

In the case of KLCLVCSDEASGCHYGVLTCGSCKVFFKRNVEGQHNYLCAGRNDCIIDKIRRKNCPACRYRKCLQAGMNLEARKTK [A30N], the abundance fitness is -0.283 ± 0.098. Take KLCLVCSDEASGCHYGVLTCGSCKVFFKRQVEGQHNYLCAGRNDCIIDKIRRKNCPACRYRKCLQAGMNLEARKTK [A30Q]: the abundance fitness was -0.192 ± 0.049. For KLCLVCSDEASGCHYGVLTCGSCKVFFKRYVEGQHNYLCAGRNDCIIDKIRRKNCPACRYRKCLQAGMNLEARKTK [A30Y], the abundance fitness was -0.102 ± 0.1. For KLCLVCSDEASGCHYGVLTCGSCKVFFKRSVEGQHNYLCAGRNDCIIDKIRRKNCPACRYRKCLQAGMNLEARKTK [A30S], the abundance fitness was -0.08 ± 0.042.

Turning to KLCLVCSDEASGCHYGVLTCGSCKVFFKRWVEGQHNYLCAGRNDCIIDKIRRKNCPACRYRKCLQAGMNLEARKTK [A30W], the abundance fitness is -0.183 ± 0.042. As for KLCLVCSDEASGCHYGVLTCGSCKVFFKRPVEGQHNYLCAGRNDCIIDKIRRKNCPACRYRKCLQAGMNLEARKTK [A30P], the abundance fitness is -0.907 ± 0.19. The figure for KLCLVCSDEASGCHYGVLTCGSCKVFFKRHVEGQHNYLCAGRNDCIIDKIRRKNCPACRYRKCLQAGMNLEARKTK [A30H] is -0.292 ± 0.09; for KLCLVCSDEASGCHYGVLTCGSCKVFFKRLVEGQHNYLCAGRNDCIIDKIRRKNCPACRYRKCLQAGMNLEARKTK [A30L] it is -0.32 ± 0.043; for KLCLVCSDEASGCHYGVLTCGSCKVFFKREVEGQHNYLCAGRNDCIIDKIRRKNCPACRYRKCLQAGMNLEARKTK [A30E] it is -0.142 ± 0.043. As to KLCLVCSDEASGCHYGVLTCGSCKVFFKRDVEGQHNYLCAGRNDCIIDKIRRKNCPACRYRKCLQAGMNLEARKTK [A30D], the abundance fitness is -0.701 ± 0.2.

In the case of KLCLVCSDEASGCHYGVLTCGSCKVFFKRTVEGQHNYLCAGRNDCIIDKIRRKNCPACRYRKCLQAGMNLEARKTK [A30T], the abundance fitness was -0.064 ± 0.05. The figure for KLCLVCSDEASGCHYGVLTCGSCKVFFKRRVEGQHNYLCAGRNDCIIDKIRRKNCPACRYRKCLQAGMNLEARKTK [A30R] is -0.457 ± 0.045; for KLCLVCSDEASGCHYGVLTCGSCKVFFKRFVEGQHNYLCAGRNDCIIDKIRRKNCPACRYRKCLQAGMNLEARKTK [A30F] it is -0.142 ± 0.099; for KLCLVCSDEASGCHYGVLTCGSCKVFFKRGVEGQHNYLCAGRNDCIIDKIRRKNCPACRYRKCLQAGMNLEARKTK [A30G] it is -0.274 ± 0.038.
